Laboratory results from publication doi:10.1101/2021.01.04.425348.

Assays:
[1] = biological target: HSA 82-aa RNC with Cys34, Cys53, and Cys62 mutated to Ala (human); assay: high-speed atomic force microscopy
[2] = biological target: protein disulfide isomerase (PDI), wild type (human) (UniProt P07237); assay: high-speed atomic force microscopy

Chain of protein disulfide isomerase (PDI), wild type (P07237 18-508): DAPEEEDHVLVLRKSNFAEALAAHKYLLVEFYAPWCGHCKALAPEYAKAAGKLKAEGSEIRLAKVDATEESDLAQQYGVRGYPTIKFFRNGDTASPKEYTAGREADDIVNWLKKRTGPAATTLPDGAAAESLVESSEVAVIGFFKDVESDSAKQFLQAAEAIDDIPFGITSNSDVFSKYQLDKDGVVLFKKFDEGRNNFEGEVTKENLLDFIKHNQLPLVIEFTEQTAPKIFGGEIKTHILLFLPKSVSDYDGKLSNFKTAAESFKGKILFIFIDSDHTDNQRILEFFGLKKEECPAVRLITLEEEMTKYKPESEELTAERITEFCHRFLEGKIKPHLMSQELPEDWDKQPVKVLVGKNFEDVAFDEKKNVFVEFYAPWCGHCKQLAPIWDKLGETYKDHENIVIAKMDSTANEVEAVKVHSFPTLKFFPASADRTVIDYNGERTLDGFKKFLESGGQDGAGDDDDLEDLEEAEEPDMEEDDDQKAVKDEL
Chain of protein disulfide isomerase (PDI), wild type, P07237 18-508 (enzyme; other documents disagree on this pair) (P07237 18-508): as above

## ER-resident protein 46 (ERp46), wild type (from UniProt Q8NBS9 33-432) (enzyme)
[1]
  RNC binding time (8/59 molecules): 60 s

## protein disulfide isomerase (PDI), wild type (from UniProt P07237 18-508) (enzyme)
[1]
  RNC binding time (PDI homodimer, 17/19 molecules): > 60 s
  RNC binding time (PDI monomer, 52/55 molecules): < 10 s

## protein disulfide isomerase (PDI), wild type, P07237 18-508 (enzyme; other documents disagree on this pair)
[2]
  stoichiometry N: 2
